These results are taken from US6060451, “Thrombin inhibitors based on the amino acid sequence of hirudin” (The National Research Council of Canada, dated 2000).

Non-standard residues stand in square brackets, D forms with d.

This experiment concerns the target human α-thrombin (human, UniProt P00734). The experiment is described as follows: inhibition of thrombin-mediated hydrolysis of Tosyl-Gly-Pro-Arg-AMC (fluorogenic amidolytic assay).
As a reminder, the Ki is the dissociation constant of the complex between target and ligand, obtained from inhibition or displacement. A high value points to weaker binding. In turn, Ac-[dF]PR[(CH2)4CO][NH‑CH2‑CH:CH‑CH2‑CO]DFEPIPL-OH [P183 (SEQ ID NO:5)] had a Ki of 300 nM. The figure for Ac-[dF]PR[(CH2)4CO][NH‑CH2‑CH:CH‑CH2‑CO][NH‑CH2‑CH:CH‑CH2‑CO]DFEPIPL-OH [P184 (SEQ ID NO:6) (BCH-1710)] is 3.5 nM; for Ac-[dF]PR[(CH2)4CO][NH‑CH2‑CH:CH‑CH2‑CO][NH‑CH2‑CH:CH‑CH2‑CO][NH‑CH2‑CH:CH‑CH2‑CO]DFEPIPL-OH [P185 (SEQ ID NO:7)] it is 3.2 nM.
